Here are results for 41 sequences from the nanobody polyreactivity screen of Harvey et al. (2022).

This data set in a line: yeast display, Sf9 membrane polyspecificity reagent, FACS + sequencing; frameworks hold sequencing errors. Put shortly: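 Galactose induction of a Saccharomyces cerevisiae BJ5465 synthetic nanobody display library ran 36–48 hours. The cells were then stained for 1 hour at 4 °C with 10% biotinylated, detergent-solubilized Sf9 membrane reagent, pulled down on streptavidin microbeads and FACS-sorted into low and high (top ~1%) gates on expression and reagent-binding fluorescence. Labels for polyreactivity follow the gate of origin.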
Turning to “QVQLQESGGGLVQEGGSLRLSCAASGNISPPADMGWYRPAPGKERELVASIGTGGTTNYADSVKGRFTISRDNAKNTVYLQMNSLKPDDTAVYYCAAVRYEYNPYDYWGQGTQVTVSS”, the “polyreactivity (PSR sort gate)” value is reported as “low polyreactivity”.
As to “QVQLQESGGGLVQEGGSLRLSCAASGNISPPADMGWYRQAHGKERELVASIGTGGTTNYADSVKGRFTISRDNAKNSVYLQMNSLKPDDTAVYYCAAVRYEYNPYDYWGQGTQVTVSS”, the “polyreactivity (PSR sort gate)” value is recorded as “low polyreactivity”.
With “QVQLQESGGGLVQEGGSLRLSCAASGNISPPADMGWYRQAPGKERELVASIGTGGTTNYADSVKGRFTISRDNAKNTVYLQMNSLQPDDTAVYYCAAVRYEYNPYDYWGQGTQVTVSS” the entry was “low polyreactivity”; with “QVQLQESGGGLVQEGGSLRLSCAASGTISQEDWMGWYRQAPGKEREFVAAIGLGSNTNYADSLKGRFTISRDNAKNTVYLQMNSLKPEDTAVYYCAVSVWQYSDHVYRGQGTQVTVSS”, “low polyreactivity”.
With “QVQLQESGGGLVQVGGSQRLSCAASGNIFYNYAMGWYRHAQGKEREFDATINHGTSINYADSVKGRFTISRDNAKNTVYLQMNSLKPEDTAVYYCAADLSWTDNLFYWGQGTQVTVIS” the entry was “low polyreactivity”; with “QVQLQESGGGLVQVGGSQRLSCAASGNIFYNYAMGWYRHAQGKEREFDATINHGTSINYADSVKGRFTISRDNAKNTVYLQMNSLKPEDTAVYYCAARVVRYGYKYYYWGQGTQVTLSS”, “low polyreactivity”; with “QVQLQESGGGMVQAGGSLRLSCAASGSIFADVQMGWYRQAPGKVRELVASINFRGTTTYYADSVKGRFTISRDNAKNTVYLQMSSLKPEDTEVYYCAVGRSEGGDFAYWGQGTHVTVSS”, “low polyreactivity”.
As for “QVQLQESGGGMVQAGGSLRLSCAASGYISWADYKGWYRQAPGKERELVAGIGYGSTTYYADSVKGRFTISRDNAINTAYLQMNSLKPEDTAVYYCAVGWYRDTAYKYWGHGTQVTVSS”, the entry is “low polyreactivity”; as for “QVQLQESGGGPVLAGCSLRLSCAASGTIFVRLDMGWYRQAPGKEREFVATIGSGSSTYYADSVKGSFTISRDNVKNTVYLQMNSLKQEDTAVYYCAVSAAEQSRHYYWDQGTQVTVSS”, “low polyreactivity”.
As for “QVQLQESGGGPVLAGGRLRLSCAASGTIFVRLDMGWYRQAPGKEREFVATIGSGSSTYYADSVKGSFTISRDNVKNTVFLQMNTLIPEDTAVYYCAVSAAEQSRHYYWDQGTQVTVSS”, the “polyreactivity (PSR sort gate)” value is recorded as “low polyreactivity”.
As for “QVQLQESGGGPVLAGGSLRLSCEASGTIFVRLDMGWYRQAPGKEREFVATIGSGSSTYYADSVKGSFTISRDNVKNTVYLQMNSLKPEETAVYYCAVSAAEQSRHYYWDQGTQVTVSS”, the entry is “low polyreactivity”; as for “QVQLQESGGGQVLAGGSLRLSCAASGSISAQAYMGWDRQAPGKEREHVAGINYGDNTNYADSVKGRFTISRDNEHRVSADEQPVSGRYRGVLLRGFLELFYYYIYWGQGTQVNVSS”, “high polyreactivity”; as for “QVQLQESGGGQVQAGGSLRLSCAASGTIFLYAFKGWYRQAPGKERELVAAIDVGTTTNYADSVKGRFTISRDNAKNTVYLQMNSLKPEDTAVYYCAANLGYLDDLGYWGQGTQVTVSS”, “low polyreactivity”.
Regarding “QVQLQESGGGQVQAGGSLRLSCAASGTIFLYAFMGWYRQAPGKERELVAAIDVGTTTNYADSVKGRFTISRDNAKNTGYLQMNSLKPEDTAVYYCAANLGYLEDLGYWGQGTQVTVSS”, the “polyreactivity (PSR sort gate)” value is “low polyreactivity”.
With “QVQLQESGGGQVQAGGSLRLSCAASGYISTHYFMGWYRQAPGKDREFVAGISNGSITNYADSVKGRFTISRDNARNTVYLQMNSLKPEDTAVYYGAAYEWTYVRFGYWGQGTQVTVSG” the entry was “high polyreactivity”; with “QVQLQESGGGQVQAGGTITLGYDMGWYRQAPGKEREFVAGIDTGAITYYADSVKGRFTNSRDNAKNTVYLQMNSLKPEDTAVYYCAAIQTHTYAHSYWGQGTQVTVSS”, “high polyreactivity”.
As for “QVQLQESGGGVQAGGSLRLSCAASGSISAPILMGWYRQAPGKERELVAGIGGGANSYYADSVKGRFTVSRDNAKYTVYLQMNSLKPEATAVYYCAAGDYYWTNFGYWGQGTQVTASS”, the entry is “high polyreactivity”; as for “QVQLQESGGRLVQAGGSLRMSCAASGTIFSEANMGWYRQAPGKERELVATIGQGSTTNYADSVKGLFTISRDNAKNTVYLQMNSLKPEETAVYYCAVVTVDPVGFVYWGQGTQVTVSS”, “low polyreactivity”; as for “QVQLQESGGRQVQAGGSLRLSCAASGSNSYASGMGWYRQAPRKEREFVARIDPGAITNYADSVKGRFTISHDNAQNTVYLQMKSLKPEDNAVYYCAARVSTTDSRRILRKYLYYVHFDYWGQGTQLTVSS”, “high polyreactivity”.
As for “QVQLQESGGSLVQAGGSLRLSCAASGNILVLPHGLVSPGAERELVATITGGSITYYADSVKGRFTISRDNAKNTVYLQMNSLKPGDTDVYYCAVINIYHRPHPYWGQGTLVTVSS”, the entry is “high polyreactivity”; as for “QVQLQESGRRPGAAGGSPRMSCAASGNIFWVAVMGRYRQAPGKERELVASIGFGCTTYYADSVKCRFTISRDNAKNTVYRQMISLKPEDTAVYYCAAPHYDWGELDYWGQGTQVPVSS”, “low polyreactivity”.
For “QVQLQESGRRPRAAGGSPRMSCAASGNIIWVAVMCRYRQAPVKERELVASIGFGCTTYYADSVKCRFTISRDNAKNTVYLQMISLIPEDTAVYYCAAPHYDWGELDFWGQGTQVPVSS”, the “polyreactivity (PSR sort gate)” value is listed as “low polyreactivity”.
For the sequence “QVQLQESGSGLVQAGGSLRLSCAASGAIFPAYLMGWYRQAPGKERELVAGISYGSITYCADSVKGRFNISRDNAKNTVYLQMNSLKPEDTAVYYCAVWRPGVDEYYYWGQGTQVTVSS”, the “polyreactivity (PSR sort gate)” value is “low polyreactivity”.
As for “QVQLQESRGCLVQAGGSLRLTCAASGTISDSGLMGWYRQAPGKERELVAGISSGGITNYADSVKGRFTLSRDNAKNSVYLQMNSLKPEDTAVYWGQGTQVTVSS”, the entry is “low polyreactivity”; as for “QVQLQESSGGLVQAGGSLRMSCAASGTIFHIHIMGRYRQAPGKEGEFVAAISYGTSTYYADSVKGRFTISRDNAKNTVYLQMNSQKPEDTAVYYCAVYDYLEVYFWYWGQGTQVTVSS”, “low polyreactivity”.
As for “QVQLQESSGGLVQAGVCLQQSCAASGSIFTQHPMGRYRQAPANEREFVAAINVGSNTYYADSVKGRITISRDNAKNTVSLQMNILTPEDTAVSYCAATSIRWSVGYFRRDYWGQGTQVTVSS”, the entry is “low polyreactivity”; as for “QVQLQESVGGLVQAGGTQRLRCAASGNIFPTDRMGWYRQAPGKELEFVATISHGGSTNYADSVKGRFTISRDNAKNTVYLQMNSLKPEDTAVYYCAVWSLGRWRHYYWGQGTQVTVSS”, “low polyreactivity”; as for “QVQLQESVGGLVQASGSIFHVPNMGWYRQAPGNERELVAGLAGGGNTNYADIVKGRFTISRDNAKNTVYLQRNSLDTAVYYCAVVGFGRGTHIYWGQGTQVTVSS”, “high polyreactivity”.
As for “QVQLQESVGGQVQAGGSLRLSCAASGTIFLYAFIGWYRQAPGKEPELVAAIDVGTTTNYADSVKGRFTISRDNAKNTVYLQMNSLKPEDTAVYYCAANLGYLDDLGYWGQGTQVTVSS”, the entry is “low polyreactivity”.
On to “QVQLQESVGGQVQAGVSLRLICAASCTISQEDWMGWYRQAPAKEREFVAAIGLGSNTNYADSLKGRFTISRDNAKNTVDLQMNSLKPEDTAVYYCAVSVWQYSDHVYRGQGTQVTVSS”, for which the “polyreactivity (PSR sort gate)” value is “low polyreactivity”.
With “QVQLQQSVGGLVQAGGSLRLSCAASGNIFPTDRMGWYRQAPGKELEFVATISHGGRTNYADSVKGRFTISRDNATNTVYLQMNRLKPEDTAVYFCAVWSLGRWRHYYWGQGSQVTVSS” the entry was “low polyreactivity”.
For “QVQLQVSGGGLVQAGGSLRLSCAASGSIFLTSEMGWYRQAPGKERELVAAIATGTSTNYADSVKGRFTISRDNAKNTVYLQMNSLKPEDTAVYYCATYHYWGQGTQVTVSS”, the “polyreactivity (PSR sort gate)” value is “low polyreactivity”.
As for “QVQLRESGGGLVQAGGSLLSCAASATISYYREMGWYRQAPGNERELVAGIGVGTITYYADSVKGRFTISRDNAKNTVYLQMNSLKPEDTAVYYCAAHIEGNDSHAYWGQGTQVTVSS”, the entry is “low polyreactivity”; as for “QVQLVASGGGLVQAGGSLRLSCAASGRNFRSYVMGWYRQAPGKERDLVATITRSGGGTTYADSVKGRFTISRDNAKNTVYLHMKSLKAEDTAVYYCNAERRYSWYSQGDYWGQGTQVTVSS”, “high polyreactivity”.
With “QVQLVASGGGLVQSGGSLRLSCAASGFIFAYYAMGWYRQAPGTERELVAAISRGGRPYYADSVKGRFTISRDNAKNTVYFQMNSLKPEDTAVYYCAARRWRRYQSGGSYSGMDHWGQGTQVTVSS” the entry was “high polyreactivity”; with “QVQLVDSAAALVQAGGSQRLTCAASGLIFYYSVMGSYRQAPGKERELVARISTSGGSTYYADSVKGRFTISRDNAKNTVYIQMNSLKPEDTAVYYCAARGYRQYGWDCYCGQGTQVTVSS”, “low polyreactivity”; with “QVQLVDSAGGLVQAGGSLRLSCDDSGRTFWYYTMGWYRQAPGKEREFLAAIRGSGTSTYYADSVKARYTISRDNAKNTVYFQMNSLKPEDTADYYCAAESPVYHLVTYDYWGQGTQVTVSS”, “high polyreactivity”.
In the case of “QVQLVDSCGGLVQAGGSLRLSCAASGSISYYYAMGWYRQAPGKERELVAAITRTGTTNYADSVKWRFTISRDNAKNTVFLQMNSLKPEDTAVYYCAKRSTGRLQSYNYWGQGTQVTVSS”, the “polyreactivity (PSR sort gate)” value is given as “low polyreactivity”.
As for “QVQLVDSGAGLVQAGGSLRISCAATGSTFPRYGMGWYRQAPGKERQMVAAISSGGRTNYADSVKGRFTISRDNAKNTVYLQMNSLKPEDTAVYYCAARIPYYFSYYFYSGMDYWGQGTQVTVSS”, the entry is “high polyreactivity”; as for “QVQLVDSGAGLVQAGGSLRISCVPPDSTTQSKLGDRIHRRLGKKVTWLPVLTSRGVGSYYADSVKGRFTISRDNAKNTVYLQMNSLIPEDTAVYYCNARYEVFYRYDYWGQGTQVSVSS”, “low polyreactivity”.
On to “QVQLVDSGAGLVQAGGSLRLSCDASGSTFRGYAMGWYRQSPWKERELVAAITYISDSTYYADSVKGRFTISRDNAKNTVFLQMISLNPEDTAVYYCNAYYDGDWRYTSQVTGDLWGQGTQVTVSS”, for which the “polyreactivity (PSR sort gate)” value is “low polyreactivity”.
